The record followed here is US20210253718A1 (MODMAB THERAPEUTICS, published 2021).

Assay [1] has as its target T1, FZD9 cysteine-rich domain (CRD), MYC-tagged and GPI-anchored on CHO cells (human, UniProt O00144 35-161, GPI anchor).
T1 construct: also called FZD9 CRD; CHO-myc-FZDGPI; not shown: MYC tag and GPI anchor signal
T1 sequence: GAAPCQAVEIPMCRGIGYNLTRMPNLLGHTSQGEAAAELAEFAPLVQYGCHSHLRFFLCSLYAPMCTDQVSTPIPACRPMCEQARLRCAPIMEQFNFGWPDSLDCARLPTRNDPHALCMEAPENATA
Briefly: flow cytometry, CHO-CRD cells.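 Also: flow cytometry of Fab binding to CHO cells overexpressing a Frizzled CRD, with binding defined as median fluorescence over twice that of CHO cells lacking any Frizzled CRD.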

The target in assay [2] is T2, FZD4 cysteine-rich domain (CRD), MYC-tagged and GPI-anchored on CHO cells (human, UniProt Q9ULV1 42-167, GPI anchor).
T2 construct: also called FZD4 CRD; CHO-myc-FZDGPI; not shown: MYC tag and GPI anchor signal
T2 sequence: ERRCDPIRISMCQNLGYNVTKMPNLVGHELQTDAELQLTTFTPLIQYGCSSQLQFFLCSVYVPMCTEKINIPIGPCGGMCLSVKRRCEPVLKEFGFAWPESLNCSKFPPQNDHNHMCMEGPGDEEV
The assay is described as follows: flow cytometry, CHO-CRD cells.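 Also: flow cytometry of Fab binding to CHO cells overexpressing a Frizzled CRD, with binding defined as median fluorescence over twice that of CHO cells lacking any Frizzled CRD.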

Assay [3] addresses T3, FZD5 cysteine-rich domain (CRD), MYC-tagged and GPI-anchored on CHO cells (human, UniProt Q13467 29-156, GPI anchor).
T3 construct: also called FZD5 CRD; CHO-myc-FZDGPI; not shown: MYC tag and GPI anchor signal
T3 sequence: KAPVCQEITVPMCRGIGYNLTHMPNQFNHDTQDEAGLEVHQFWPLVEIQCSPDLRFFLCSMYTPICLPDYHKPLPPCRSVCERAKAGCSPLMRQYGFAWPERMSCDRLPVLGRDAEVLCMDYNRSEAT
Briefly: flow cytometry, CHO-CRD cells.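 Also: flow cytometry of Fab binding to CHO cells overexpressing a Frizzled CRD, with binding defined as median fluorescence over twice that of CHO cells lacking any Frizzled CRD.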

Assay [4] deals with T4, FZD1 cysteine-rich domain (CRD), MYC-tagged and GPI-anchored on CHO cells (human). Briefly: flow cytometry, CHO-CRD cells.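 Also: flow cytometry of Fab binding to CHO cells overexpressing a Frizzled CRD, with binding defined as median fluorescence over twice that of CHO cells lacking any Frizzled CRD.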 In general terms: In flow cytometry, cells or beads pass a laser one at a time.
Experimental: (§1) Binding was measured via flow cytometry analysis of CHO cells overexpressing CRD of FZD1, FZD2, FZD3, FZD4, FZD5, FZD6, FZD7, FZD8, FZD9 or FZD10. Median fluorescence values are shown.
In assay [5] the target is T5, FZD2 cysteine-rich domain (CRD), MYC-tagged and GPI-anchored on CHO cells (human, UniProt Q14332 35-161). The assay is described as follows: flow cytometry, CHO-CRD cells.
Experimental: as §1
Assay [6] concerns the target T6, FZD6 cysteine-rich domain (CRD), MYC-tagged and GPI-anchored on CHO cells (human, UniProt O60353 20-146, GPI anchor).
T6 construct: also called FZD6 CRD; CHO-myc-FZDGPI; not shown: MYC tag and GPI anchor signal
T6 sequence: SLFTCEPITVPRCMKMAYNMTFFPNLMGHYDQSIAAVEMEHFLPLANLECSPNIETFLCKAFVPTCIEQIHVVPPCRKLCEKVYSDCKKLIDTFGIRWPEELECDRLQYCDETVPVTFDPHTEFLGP
The assay is described as follows: flow cytometry, CHO-CRD cells.

In assay [7] the target is T7, FZD7 cysteine-rich domain (CRD), MYC-tagged and GPI-anchored on CHO cells (human, UniProt O75084 45-169). The assay is described as follows: flow cytometry, CHO-CRD cells.
Experimental: as §1
The target of assay [8] is T8, FZD10 cysteine-rich domain (CRD), MYC-tagged and GPI-anchored on CHO cells (human, UniProt Q9ULW2 30-156, GPI anchor).
T8 construct: also called FZD10 CRD; CHO-myc-FZDGPI; not shown: MYC tag and GPI anchor signal
T8 sequence: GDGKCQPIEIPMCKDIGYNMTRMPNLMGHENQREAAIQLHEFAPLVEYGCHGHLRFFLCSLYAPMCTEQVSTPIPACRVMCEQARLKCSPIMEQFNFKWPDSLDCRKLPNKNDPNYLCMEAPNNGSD
Briefly: flow cytometry, CHO-CRD cells.

Assay [9] addresses T9, FZD3 cysteine-rich domain (CRD), MYC-tagged and GPI-anchored on CHO cells (human, UniProt Q9NPG1 24-150, GPI anchor).
T9 construct: domain: cysteine-rich domain (CRD); also called FZD3 CRD; CHO-myc-FZDGPI; not shown: MYC tag and GPI anchor signal
T9 sequence (looked up): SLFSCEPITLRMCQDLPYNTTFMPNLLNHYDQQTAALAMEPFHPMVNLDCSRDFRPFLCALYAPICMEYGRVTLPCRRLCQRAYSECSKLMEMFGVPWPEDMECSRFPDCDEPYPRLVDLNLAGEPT
Briefly: flow cytometry, CHO-CRD cells.

The target of assay [10] is T1, FZD9 cysteine-rich domain (CRD), …. Briefly: immunofluorescence, CHO-CRD cells.
Assay [11] deals with T2, FZD4 cysteine-rich domain (CRD), …. The assay is described as follows: immunofluorescence, CHO-CRD cells.
Assay [12] concerns the target T4, FZD1 cysteine-rich domain (CRD), …. Briefly: immunofluorescence, CHO-CRD cells.
The target of assay [13] is T5, FZD2 cysteine-rich domain (CRD), …. The assay is described as follows: immunofluorescence, CHO-CRD cells.
Assay [14] deals with T6, FZD6 cysteine-rich domain (CRD), …. The assay is described as follows: immunofluorescence, CHO-CRD cells.
Assay [15] addresses T8, FZD10 cysteine-rich domain (CRD), …. Briefly: immunofluorescence, CHO-CRD cells.
Assay [16] has as its target T9, FZD3 cysteine-rich domain (CRD), …. The assay is described as follows: immunofluorescence, CHO-CRD cells.
The target of assay [17] is T10, FZD8 cysteine-rich domain (CRD), MYC-tagged and GPI-anchored on CHO cells (human, UniProt Q498S8 31-155 (rat entry), GPI anchor).
T10 construct: also called FZD8 CRD; CHO-myc-FZDGPI; not shown: MYC tag and GPI anchor signal
T10 sequence: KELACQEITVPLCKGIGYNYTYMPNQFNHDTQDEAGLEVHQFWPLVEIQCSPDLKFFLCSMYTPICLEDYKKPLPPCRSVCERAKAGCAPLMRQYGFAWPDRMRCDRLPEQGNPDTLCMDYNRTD
The assay is described as follows: flow cytometry, CHO-CRD cells.

For assay [18], the target named is T7, FZD7 cysteine-rich domain (CRD), …. Briefly: immunofluorescence, CHO-CRD cells.

B1: Fab-2909 (Fab, V domains shown)
VH: EVQLVESGGGLVQPGGSLRLSCAASGFNISSSYMHWVRQAPGKGLEWVASISSSSGYTSYADSVKGRFTISADTSKNTAYLQMNSLRAEDTAVYYCARTVRGSKKPYFSGWAMDYWGQGTLVTVSS
VL: DIQMTQSPSSLSASVGDRVTITCRASQSVSSAVAWYQQKPGKAPKLLIYSASSLYSGVPSRFSGSRSGTDFTLTISSLQPEDFATYYCQQSWSYHYLITFGQGTKVEIK
notes: Fab; also called Fv-2909
B1: the median fluorescence in [1] was 2.57; in [2], 4.1; in assay [3], 31.3; in assay [4], 4.61; in assay [5], 5.38; in assay [6], 2.89. For the same molecule, the median fluorescence in assay [7] is 4.57; in assay [8], 2.71; in [9] it was 3.43. For the same molecule, the binding result in [10], in assay [11], in assay [12], in [13], in assay [14] and in assay [15] was “no binding” each time. Further, in assay [16], the binding result is listed as “no binding”.

B2: Fab-2934 (Fab, V domains shown)
VH: EVQLVESGGGLVQPGGSLRLSCAASGFNISYSYMHWVRQAPGKGLEWVASIYSSSGSTSYADSVKGRFTISADTSKNTAYLQMNSLRAEDTAVYYCARGAIDYWGQGTLVTVSS
VL: DIQMTQSPSSLSASVGDRVTITCRASQSVSSAVAWYQQKPGKAPKLLIYSASSLYSGVPSRFSGSRSGTDFTLTISSLQPEDFATYYCQQWYHYGLITFGQGTKVEIK
notes: Fab; also called Fv-2934
Take B2: the median fluorescence in [1] turned out to be 2.71; in assay [2], 4.78; in assay [3], 34.3; in assay [4] it was 61.5; in [6], 2.86; in assay [7], 3.52. The median fluorescence in [17] turned out to be 29.4; in assay [8] it was 2.67; in assay [9] it was 3.28. The binding result in [10], in assay [11], in assay [14], in assay [18], in assay [15] and in assay [16] was “no binding” in each case.

B3: Fab-2902 (Fab, V domains shown)
VH: EVQLVESGGGLVQPGGSLRLSCAASGFNISYYYIHWVRQAPGKGLEWVASISSSSSSTSYADSVKGRFTISADTSKNTAYLQMNSLRAEDTAVYYCARGALDYWGQGTLVTVSS
VL: DIQMTQSPSSLSASVGDRVTITCRASQSVSSAVAWYQQKPGKAPKLLIYSASSLYSGVPSRFSGSRSGTDFTLTISSLQPEDFATYYCQQWYAFGALITFGQGTKVEIK
notes: Fab; also called Fv-2902
B3: the median fluorescence was 3.96 in assay [1]; 36.9 in assay [3]; 6.1 in assay [4]; 8.98 in [5]; 4 in [6]; 16 in assay [7]. The median fluorescence in assay [17] came to 13.9; in [8], 4.1; in [9], 6.44. The binding result in [10], in assay [12], in assay [13], in assay [14], in [15] and in assay [16] was “no binding” throughout.

B4: Fab-2923 (Fab, V domains shown)
VH: EVQLVESGGGLVQPGGSLRLSCAASGFNLYYYYMHWVRQAPGKGLEWVASIYSSSGSTSYADSVKGRFTISADTSKNTAYLQMNSLRAEDTAVYYCARGAMDYWGQGTLVTVSS
VL: DIQMTQSPSSLSASVGDRVTITCRASQSVSSAVAWYQQKPGKAPKLLIYSASSLYSGVPSRFSGSRSGTDFTLTISSLQPEDFATYYCQQWYGYSALITFGQGTKVEIK
notes: Fab; also called Fv-2923
In the case of B4, the median fluorescence in assay [1] was found to be 4.83; in assay [3], 36.9; in assay [4] it was 6.04; in assay [5], 7.91; in [6], 4.33; in assay [7] it was 6.04. Moreover, the median fluorescence in [17] was found to be 11.9; in assay [8] it was 4.22; in assay [9], 6.67. Also, the binding result in [10], in [12], in assay [13], in assay [14], in assay [18] and in [15] was “no binding” in each case. In addition, in assay [16], the binding result is reported as “no binding”.

B5: Fab-2935 (Fab, V domains shown)
VH: EVQLVESGGGLVQPGGSLRLSCAASGFNIYYYYIHWVRQAPGKGLEWVASIYPSSGSTSYADSVKGRFTISADTSKNTAYLQMNSLRAEDTAVYYCARAAFDYWGQGTLVTVSS
VL: DIQMTQSPSSLSASVGDRVTITCRASQSVSSAVAWYQQKPGKAPKLLIYSASSLYSGVPSRFSGSRSGTDFTLTISSLQPEDFATYYCQQWYGGYALITFGQGTKVEIK
notes: Fab; also called Fv-2935
As to B5, the median fluorescence was determined as 3.52 in assay [1]; 29.2 in assay [3]; 4.07 in assay [4]; 6.79 in assay [5]; 3.37 in assay [6]; 3 in assay [7]. Besides, the median fluorescence in assay [17] came out at 15.8; in [8], 3.34; in assay [9] it was 4.49. In addition, the binding result in assay [10], in assay [12], in [13], in assay [14], in assay [18] and in assay [15] was “no binding” throughout. For the same molecule, in assay [16], the binding result is “no binding”.
